According to patent US20050113286A1, “Methods for treating congestive heart failure” (priority 2002, published 2005):
“Also recorded” adds a separate entry of the source.

Assays:
[1] = test system: patients with chronic decompensated HF; test: FUSION I: quality of life, Minnesota Living With HF questionnaire; type: in vivo, human; settings: weeks 4, 8, and 12
Procedure: At weeks 4, 8, and 12, the change from baseline global clinical status was assessed by both the patient and the investigator; assessments were rated on a 7-point ordinal scale from markedly worse (−3) to markedly better (+3).^1l,12 In addition, patients' assessment of quality of life was measured at baseline and at weeks 4, 8, and 12 using the Minnesota Living With HF questionnaire. (Rector TS, Kubo SH, Cohn J N. Patients' self-assessment of their congestive heart failure. Part 2: Content, reliability and validity of a new measure, The Minnesota Living with Heart Failure Questionnaire. Heart Failure 1987;October/November:198-209.)

[2] = test system: patients with chronic decompensated HF; test: FUSION I: use of IV inotropic agents during study visits; type: in vivo, human
Source text: Patients in all treatment groups were allowed to receive any long-term cardiac or noncardiac medications, including IV diuretics, according to investigator discretion. At each visit, the investigator ensured that optimal medical treatment regimens were established. Patients who were randomized to usual care only were allowed to receive positive inotropic agents (milrinone, dobutamine, or dopamine) only if the investigator believed that inotropic support was required to alleviate symptomatic HF and yield hemodynamic stability. Inotropic agents were not permitted in the nesiritide groups unless they were urgently required to prevent hospitalization. During hospitalization, there was no restriction on the use of inotropic agents or nesiritide, regardless of treatment group.

[3] = test system: patients with chronic decompensated HF; test: FUSION I: safety and tolerability of serial outpatient nesiritide infusions; type: in vivo; settings: for Patients discontinued from the study before week 12 because of an AE, number / Patients discontinued from the study prematurely due to an AE, %: primarily worsening HF
Procedure: The objective of the FUSION I study was to assess the safety and tolerability of nesiritide when administered in an outpatient setting as serial parenteral infusions to patients with chronic decompensated HF who were at high risk for hospitalization and were receiving established usual therapy for HF. The study compared usual care with usual care plus nesiritide given as 1 of 2 dosing strategies. All patients were evaluated weekly and treated in established HF clinics.
In this multicenter, open-label, pilot study, patients were randomly assigned to 1 of 3 treatment groups in a 1:1:1 ratio: (1) usual care, as determined by the investigating physician; (2) usual care plus nesiritide 0.005 μg/kg/min given for 4 to 6 hours, preceded by a 1.0-μg/kg bolus; or (3) usual care plus nesiritide 0.01 μg/kg/min given for 4 to 6 hours, preceded by a 2.0-μg/kg bolus (FIG. 1). The study treatment period was 12 weeks with an additional 4 weeks of follow-up. Nesiritide (Natrecor®) was supplied by Scios Inc., Fremont, Calif. Informed consent was obtained from each patient prior to enrollment, and the Ethics Committee of each institution prospectively approved the study.
All patients, regardless of treatment assignment, were required to have weekly clinic visits in an established HF clinic. If the patient had been randomized to nesiritide, half of the protocol-specified nesiritide dose was administered on the first weekly visit to assess safety. The 0.005 μg/kg/min nesiritide group received a 0.5 μg/kg bolus followed by a 0.0025 μg/kg/min infusion; and the 0.01 μg/kg/min nesiritide group received a 1.0 μg/kg bolus followed by a 0.005 μg/kg/min infusion. At subsequent visits (starting with week 2), the dose was increased to the protocol-specified dose for that group.
Nesiritide was administered as an IV bolus immediately followed by a fixed-rate infusion for 4 to 6 hours, based on the investigators' discretion, for 12 consecutive weeks. Before each infusion, the investigator assessed the patient's hydration status and HF symptoms as per the protocol. The investigator could choose the infusion frequency from once every other week to twice weekly based on hydration status and HF symptoms.
The primary goal of this open-label study was to assess the safety and tolerability of different nesiritide doses administered as serial outpatient infusions. Safety and tolerability were measured through investigator reporting of adverse events (AEs), serious AEs, discontinuations of study infusions, laboratory assessments, and vital signs. An AE was defined as any new onset or worsening of any medical condition since study entry. A serious AE were those AEs, which lead to death, hospitalization, or prolonged hospitalization. The effect of nesiritide infusions on renal function was also monitored as a safety variable, with renal AEs defined as increased blood urea nitrogen (BUN) or serum creatinine levels (determined by investigator's discretion), onset of oliguria, or occurrence of acute renal failure. Clinical events were followed to further evaluate safety and tolerability.

endothelin-1 = test: FUSION I: serum endothelin-1; type: in vivo, human
Source text: Surrogate measures with mechanistic implications included measures of serum aldosterone, serum endothelin-1, and serial measurements of ventricular function using ejection fractions derived from echocardiography. […] Left ventricular ejection fractions were serially measured and read at a core lab (Midwest Heart Foundation Echocardiographic Core Laboratory, Lombard, Ill.).

[4] = test system: symptoms of acute decompensated HF; settings: VMAC trial; cited from earlier work
aldosterone = test: FUSION I: serum aldosterone; type: in vivo, human
Source text: Surrogate measures with mechanistic implications included measures of serum aldosterone, serum endothelin-1, and serial measurements of ventricular function using ejection fractions derived from echocardiography. Pre-infusion aldosterone and endothelin-1 concentrations were collected and analyzed at a core lab (The Mayo Clinic, Rochester, Minn.) at weeks 1, 4, 8, and 12; post-infusion concentrations were collected at weeks 1 and 12. Left ventricular ejection fractions were serially measured and read at a core lab (Midwest Heart Foundation Echocardiographic Core Laboratory, Lombard, Ill.).

[5] = all patients who received nesiritide
[6] = 0.005 μg/kg/min, n = 72, 819 infusions
[7] = 0.01 μg/kg/min, n = 69, 826 infusions
[8] = all nesiritide patients, n = 141
[9] = all nesiritide patients, n = 141, 1645 infusions

Nesiritide: a recombinant form of human B-type natriuretic peptide (BNP)
Quality of life, between treatment groups [1]: no significant differences
Quality of life compared with baseline ([1]; all treatment groups): significant improvement
Patients receiving IV inotropic agents during study visits through week 12, number ([2]; 0.005 μg/kg/min, n = 72): 0
Patients receiving IV inotropic agents during study visits through week 12, % ([2]; 0.01 μg/kg/min, n = 69): 3%
Patients receiving IV inotropic agents during study visits through week 12, number ([2]; 0.01 μg/kg/min, n = 69): 2
Patients who also received an inotropic agent during a study visit because of decompensated HF, % [2, 5]: < 2%
Patients who also received an inotropic agent during a study visit because of decompensated HF, number [2, 5]: 2
Patients with infusion stopped due to adverse event, % ([3]; 0.005 μg/kg/min, n = 72): 6%
Patients with infusion stopped due to adverse event, number ([3]; 0.005 μg/kg/min, n = 72): 4
Infusion completed, % of infusions [3, 6]: 99%
Infusion completed, number of infusions [3, 6]: 814
Infusions stopped due to adverse event, % [3, 6]: < 1%
Infusions stopped due to adverse event, number [3, 6]: 4
Patients discontinued from the study before week 12 because of an AE, number ([3]; 0.005 μg/kg/min): 7
Patients discontinued from the study prematurely due to an AE, % ([3]; 0.005 μg/kg/min): 10%
Patients with infusion stopped due to adverse event, % ([3]; 0.01 μg/kg/min, n = 69): 7%
Patients with infusion stopped due to adverse event, number ([3]; 0.01 μg/kg/min, n = 69): 5
Infusion completed, % of infusions [3, 7]: 99%
Infusion completed, number of infusions [3, 7]: 814
Infusions stopped due to adverse event, % [3, 7]: < 1%
Infusions stopped due to adverse event, number [3, 7]: 7
Patients discontinued from the study before week 12 because of an AE, number ([3]; 0.01 μg/kg/min): 2
Patients discontinued from the study prematurely due to an AE, % ([3]; 0.01 μg/kg/min): 3%
Deaths considered related to study medication ([3]; 12-week treatment period): in no case
Adverse cardiovascular or renal events compared with usual care ([3]; RAS≧4 cohort): not associated with an increase; also recorded: tended to have a lower incidence
Patients with infusion stopped due to adverse event, % [3, 8]: 6%
Patients with infusion stopped due to adverse event, number [3, 8]: 9
Infusion completed, % of infusions [3, 9]: 99%
Infusion completed, number of infusions [3, 9]: 1628
Infusions stopped due to adverse event, % [3, 9]: < 1%
Infusions stopped due to adverse event, number [3, 9]: 11
Infusion completed, number of infusions ([3]; all nesiritide patients, n = 141, 1645 infusions, listed as nesiritide): 1,628
Safety and tolerability of serial outpatient infusions ([3]; both doses, 12 weeks, outpatient setting): similarly well tolerated; also recorded: safe and well tolerated
Frequency of observed AEs compared with usual-care group ([3]; either nesiritide group, through 12 weeks, all patients): no increase
Cardiovascular AEs, including symptomatic hypotension, and renal AEs compared to usual-care group ([3]; nesiritide groups, all patients): not increased
Mean change (±standard deviation) in post-infusion concentration of endothelin-1 (endothelin-1; 0.005-μg/kg/min): -0.2 ± 1.5 pg/mL
Mean change (±standard deviation) in post-infusion concentration of endothelin-1 (endothelin-1; 0.01-μg/kg/min, p=0.04 compared to baseline): -0.6 ± 2.0 pg/mL
Post-infusion levels of endothelin-1 versus baseline (endothelin-1; after the week 12 infusion, all-nesiritide group, p=0.008 (FIG. 2B)): significant change from baseline
Resolution of the symptoms of acute decompensated HF versus IV diuretics or nitroglycerin [4]: more rapid resolution
Post-infusion levels of aldosterone versus baseline (aldosterone; after the week 12 infusion, 0.01-μg/kg/min and all-nesiritide group, p<0.02 (FIG. 2A)): significant changes from baseline
Mean pre-infusion aldosterone values over time (aldosterone; any treatment group): no significant changes
Mean change from baseline (±standard deviation) in post-infusion aldosterone (aldosterone; week 1, 0.005-μg/kg/min): -5.0 ± 14.8 pg/mL
Mean change from baseline (±standard deviation) in post-infusion aldosterone (aldosterone; week 1, 0.01-μg/kg/min, p=0.02 compared to baseline): -10.9 ± 22.8 pg/mL
Mean post-infusion values of aldosterone versus baseline (aldosterone; weeks 1 and 12, both nesiritide groups): significant declines
